# T1: paired immunoglobulin-like receptor B (PirB) (mouse, UniProt P97484 25-841)
# T1 construct: whole, on cells
# T1 sequence (looked up): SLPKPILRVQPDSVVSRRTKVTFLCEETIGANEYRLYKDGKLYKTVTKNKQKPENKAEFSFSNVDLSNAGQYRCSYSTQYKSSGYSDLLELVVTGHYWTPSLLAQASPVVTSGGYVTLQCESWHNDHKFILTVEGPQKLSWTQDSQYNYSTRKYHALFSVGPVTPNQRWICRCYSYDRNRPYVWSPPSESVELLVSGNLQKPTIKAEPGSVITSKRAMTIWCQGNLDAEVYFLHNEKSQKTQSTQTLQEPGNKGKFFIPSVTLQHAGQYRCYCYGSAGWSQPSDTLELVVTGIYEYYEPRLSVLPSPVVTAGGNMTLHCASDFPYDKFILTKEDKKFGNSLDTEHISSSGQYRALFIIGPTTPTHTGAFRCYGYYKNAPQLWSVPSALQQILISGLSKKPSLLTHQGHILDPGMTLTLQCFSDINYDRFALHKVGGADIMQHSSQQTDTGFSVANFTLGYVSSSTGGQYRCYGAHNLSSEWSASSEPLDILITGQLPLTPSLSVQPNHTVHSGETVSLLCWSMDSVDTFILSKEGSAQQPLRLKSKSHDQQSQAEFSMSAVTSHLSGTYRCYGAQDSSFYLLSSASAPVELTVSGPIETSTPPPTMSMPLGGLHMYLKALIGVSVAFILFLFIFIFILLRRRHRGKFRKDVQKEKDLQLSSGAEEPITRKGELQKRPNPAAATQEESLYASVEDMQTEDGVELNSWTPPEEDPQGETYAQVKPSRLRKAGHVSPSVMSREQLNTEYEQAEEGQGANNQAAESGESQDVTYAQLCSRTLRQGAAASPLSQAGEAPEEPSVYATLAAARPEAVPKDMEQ
# T2: human Angptl-7 with FLAG tag at the C-terminus (human, UniProt O43827 27-346)
# T2 construct: not shown: FLAG tag at the C-terminus
# T2 sequence: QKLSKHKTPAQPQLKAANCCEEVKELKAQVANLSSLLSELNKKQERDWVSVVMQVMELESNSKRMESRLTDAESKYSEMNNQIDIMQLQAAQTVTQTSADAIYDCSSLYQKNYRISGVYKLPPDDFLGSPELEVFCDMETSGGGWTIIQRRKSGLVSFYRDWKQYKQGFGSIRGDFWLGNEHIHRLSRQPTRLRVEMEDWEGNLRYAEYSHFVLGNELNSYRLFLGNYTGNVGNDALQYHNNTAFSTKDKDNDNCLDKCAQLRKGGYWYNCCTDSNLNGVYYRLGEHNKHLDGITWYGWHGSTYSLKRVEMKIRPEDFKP
# B1: LILRA2 (receptor, UniProt Q8N149 24-483, looked up)
# chain: GHLPKPTLWAEPGSVIIQGSPVTLRCQGSLQAEEYHLYRENKSASWVRRIQEPGKNGQFPIPSITWEHAGRYHCQYYSHNHSSEYSDPLELVVTGAYSKPTLSALPSPVVTSGGNVTLQCVSQVAFDGFILCKEGEDEHPQRLNSHSHARGWSWAIFSVGPVSPSRRWSYRCYAYDSNSPYVWSLPSDLLELLVPGVSKKPSLSVQPGPMVAPGESLTLQCVSDVGYDRFVLYKEGERDFLQRPGWQPQAGLSQANFTLGPVSPSHGGQYRCYSAHNLSSEWSAPSDPLDILITGQFYDRPSLSVQPVPTVAPGKNVTLLCQSRGQFHTFLLTKEGAGHPPLHLRSEHQAQQNQAEFRMGPVTSAHVGTYRCYSSLSSNPYLLSLPSDPLELVVSEAAETLSPSQNKTDSTTTSLGQHPQDYTVENLIRMGVAGLVLVVLGILLFEAQHSQRSLQDAAGR
# notes: whole, on cells
# B2: human Angptl-2 with FLAG tag at the C-terminus, mammalian-expressed (ligand, not shown: small tags and cut ends)
# chain: QEDGFEGTEEGSPREFIYLNRYKRAGESQDKCTYTFIVPQQRVTGAICVNSKEPEVLLENRVHKQELELLNNELLKQKRQIETLQQLVEVDGGIVSEVKLLRKESRNMNSRVTQLYMQLLHEIIRKRDNALELSQLENRILNQTADMLQLASKYKDLEHKYQHLATLAHNQSEIIAQLEEHCQRVPSARPVPQPPPAAPPRVYQPPTYNRIINQISTNEIQSDQNLKVLPPPLPTMPTLTSLPSSTDKPSGPWRDCLQALEDGHDTSSIYLVKPENTNRLMQVWCDQRHDPGGWTVIQRRLDGSVNFFRNWETYKQGFGNIDGEYWLGLENIYWLTNQGNYKLLVTMEDWSGRKVFAEYASFRLEPESEYYKLRLGRYHGNAGDSFTWHNGKQFTTLDRDHDVYTGNCAHYQKGGWWYNACAHSNLNGVWYRGGHYRSRYQDGVYWAEFRGGSYSLKKVVMMIRPNPNTFH
# notes: also called Angptl-2-FLAG; A2-Flag (mammalian)
# Columns and labels:
# [1] = target: T1, paired immunoglobulin-like receptor B …; assay: flow cytometry, PirB-transfected 293T cells, GST-Angptl-5-FLAG according to the legend, Angptl binding against PirB staining; left gate of the same panel 46; Control panel 123 (left) and 183 (right)
# Procedure: (§1) Plasmids and proteins. […] Angptl-2-FLAG was purified using M2 resin. Purified GST-Angptl-5 was purchased from Abnova. Bacterially-expressed Flag-Angptl-2 and Angptl-2-Flag were constructed in pET-26b(+) vector, and GST-Angptls-FLAG in pGEX vector, and expressed and purified from bacteria. […] Anti-LILRB2-PE was used as indicated. The cells were analyzed using either a FACSCalibur or FACSAria instrument (Becton Dickinson).
# [2] = target: T1, paired immunoglobulin-like receptor B …; assay: flow cytometry on PirB-transfected 293T cells
# Procedure: as §1
# [3] = target: B1; assay: flow cytometry on transfected 293T cells
# Procedure: as §1
# [4] = target: T3, LILRA4 (UniProt P59901 24-499, limits assumed); assay: flow cytometry on transfected 293T cells
# T3 construct: whole, on cells
# T3 sequence (P59901 24-499 limits assumed): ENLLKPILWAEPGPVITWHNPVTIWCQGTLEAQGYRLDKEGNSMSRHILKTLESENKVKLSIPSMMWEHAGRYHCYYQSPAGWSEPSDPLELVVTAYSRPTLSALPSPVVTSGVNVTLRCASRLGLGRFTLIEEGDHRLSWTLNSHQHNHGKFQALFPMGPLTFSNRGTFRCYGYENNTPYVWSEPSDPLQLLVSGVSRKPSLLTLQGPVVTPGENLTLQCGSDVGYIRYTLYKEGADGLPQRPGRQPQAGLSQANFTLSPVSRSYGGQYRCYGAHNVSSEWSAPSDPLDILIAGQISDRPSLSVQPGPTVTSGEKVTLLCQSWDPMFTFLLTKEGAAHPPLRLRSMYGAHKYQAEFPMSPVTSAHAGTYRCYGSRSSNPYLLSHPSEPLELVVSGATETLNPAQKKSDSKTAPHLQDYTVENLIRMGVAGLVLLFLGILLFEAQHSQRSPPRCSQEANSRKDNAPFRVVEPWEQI
# Procedure: as §1
# [5] = target: T4, LILRB3 (human, UniProt O75022 24-631); assay: flow cytometry on transfected 293T cells
# T4 construct: also called leukocyte immunoglobulin-like receptor B3
# T4 sequence (O75022 other isoform, or with tags, fused parts or gaps limits assumed): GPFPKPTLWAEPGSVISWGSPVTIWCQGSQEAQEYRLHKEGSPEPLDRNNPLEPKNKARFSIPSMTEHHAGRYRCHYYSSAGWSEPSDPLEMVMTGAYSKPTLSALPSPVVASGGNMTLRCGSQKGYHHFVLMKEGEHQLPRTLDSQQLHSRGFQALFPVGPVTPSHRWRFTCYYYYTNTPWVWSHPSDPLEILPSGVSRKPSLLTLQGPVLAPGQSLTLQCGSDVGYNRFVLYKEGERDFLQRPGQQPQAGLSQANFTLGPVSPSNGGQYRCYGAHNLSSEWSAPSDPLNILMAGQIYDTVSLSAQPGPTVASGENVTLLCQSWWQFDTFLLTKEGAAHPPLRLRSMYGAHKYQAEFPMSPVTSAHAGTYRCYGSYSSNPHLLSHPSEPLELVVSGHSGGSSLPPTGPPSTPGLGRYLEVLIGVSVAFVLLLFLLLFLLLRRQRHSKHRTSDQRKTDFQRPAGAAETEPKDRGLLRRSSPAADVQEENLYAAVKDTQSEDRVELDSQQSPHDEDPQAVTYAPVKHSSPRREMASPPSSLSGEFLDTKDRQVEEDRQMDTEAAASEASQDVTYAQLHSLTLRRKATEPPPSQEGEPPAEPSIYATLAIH
# Procedure: as §1
# [6] = target: T5, LILRB1 (human, UniProt Q8NHL6 24-650); assay: flow cytometry on transfected 293T cells
# T5 construct: also called leukocyte immunoglobulin-like receptor B1
# T5 sequence (Q8NHL6 other isoform, or with tags, fused parts or gaps limits assumed): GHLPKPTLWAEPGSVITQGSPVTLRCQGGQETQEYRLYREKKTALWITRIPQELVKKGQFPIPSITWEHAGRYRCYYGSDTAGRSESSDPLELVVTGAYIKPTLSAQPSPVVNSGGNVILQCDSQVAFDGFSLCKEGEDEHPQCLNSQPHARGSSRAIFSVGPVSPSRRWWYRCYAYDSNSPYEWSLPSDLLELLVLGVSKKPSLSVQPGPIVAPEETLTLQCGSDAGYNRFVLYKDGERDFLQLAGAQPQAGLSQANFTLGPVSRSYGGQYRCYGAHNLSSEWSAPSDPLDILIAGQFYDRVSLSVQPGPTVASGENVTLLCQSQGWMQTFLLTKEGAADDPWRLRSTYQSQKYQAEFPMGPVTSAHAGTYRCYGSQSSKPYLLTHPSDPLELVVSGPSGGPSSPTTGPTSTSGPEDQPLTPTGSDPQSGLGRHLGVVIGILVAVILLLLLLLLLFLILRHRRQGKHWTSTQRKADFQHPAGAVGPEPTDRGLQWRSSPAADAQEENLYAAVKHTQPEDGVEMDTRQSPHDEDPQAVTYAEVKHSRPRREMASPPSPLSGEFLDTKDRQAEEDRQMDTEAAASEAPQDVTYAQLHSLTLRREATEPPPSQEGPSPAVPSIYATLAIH
# Procedure: as §1
# [7] = target: T6, LILRA1 (UniProt O75019 17-489, limits assumed); assay: flow cytometry on transfected 293T cells
# T6 construct: whole, on cells
# T6 sequence (O75019 17-489 limits assumed): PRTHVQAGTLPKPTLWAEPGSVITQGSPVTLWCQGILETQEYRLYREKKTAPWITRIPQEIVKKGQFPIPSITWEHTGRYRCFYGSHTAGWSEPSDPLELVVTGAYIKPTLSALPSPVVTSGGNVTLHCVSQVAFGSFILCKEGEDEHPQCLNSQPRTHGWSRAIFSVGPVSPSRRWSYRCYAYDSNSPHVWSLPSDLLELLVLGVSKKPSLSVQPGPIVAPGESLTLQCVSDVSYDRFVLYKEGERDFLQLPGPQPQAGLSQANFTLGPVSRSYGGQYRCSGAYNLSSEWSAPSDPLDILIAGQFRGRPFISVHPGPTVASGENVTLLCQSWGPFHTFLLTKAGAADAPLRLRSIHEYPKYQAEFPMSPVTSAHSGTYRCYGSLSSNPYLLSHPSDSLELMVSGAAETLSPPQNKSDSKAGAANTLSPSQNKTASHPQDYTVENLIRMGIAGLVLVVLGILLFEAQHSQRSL
# Procedure: as §1
# [8] = target: T7, LILRB5 (human, UniProt O75023 24-590); assay: flow cytometry on transfected 293T cells
# T7 construct: also called leukocyte immunoglobulin-like receptor B5
# T7 sequence (O75023 other isoform, or with tags, fused parts or gaps limits assumed): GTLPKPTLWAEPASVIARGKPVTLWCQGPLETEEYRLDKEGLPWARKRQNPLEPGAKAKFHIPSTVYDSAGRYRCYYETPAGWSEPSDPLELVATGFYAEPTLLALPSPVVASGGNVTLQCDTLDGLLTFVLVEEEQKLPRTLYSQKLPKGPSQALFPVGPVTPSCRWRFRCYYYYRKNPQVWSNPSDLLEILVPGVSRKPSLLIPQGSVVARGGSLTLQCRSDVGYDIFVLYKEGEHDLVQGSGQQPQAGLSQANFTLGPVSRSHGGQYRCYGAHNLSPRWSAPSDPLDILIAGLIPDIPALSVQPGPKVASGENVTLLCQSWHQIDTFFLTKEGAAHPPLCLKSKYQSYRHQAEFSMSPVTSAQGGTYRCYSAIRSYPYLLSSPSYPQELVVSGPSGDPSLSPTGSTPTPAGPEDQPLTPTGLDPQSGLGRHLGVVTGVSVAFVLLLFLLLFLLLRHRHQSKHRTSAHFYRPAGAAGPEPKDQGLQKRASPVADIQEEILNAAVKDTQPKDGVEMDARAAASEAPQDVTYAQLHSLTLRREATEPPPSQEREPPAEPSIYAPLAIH
# Procedure: as §1
# [9] = target: T8, human LILRB2 (human, UniProt Q8N423 22-597); assay: flow cytometry on human cord blood LILRB2+ cells
# T8 construct: also called leukocyte immunoglobulin-like receptor B2
# T8 sequence (Q8N423 22-597 D161E/M235V limits assumed): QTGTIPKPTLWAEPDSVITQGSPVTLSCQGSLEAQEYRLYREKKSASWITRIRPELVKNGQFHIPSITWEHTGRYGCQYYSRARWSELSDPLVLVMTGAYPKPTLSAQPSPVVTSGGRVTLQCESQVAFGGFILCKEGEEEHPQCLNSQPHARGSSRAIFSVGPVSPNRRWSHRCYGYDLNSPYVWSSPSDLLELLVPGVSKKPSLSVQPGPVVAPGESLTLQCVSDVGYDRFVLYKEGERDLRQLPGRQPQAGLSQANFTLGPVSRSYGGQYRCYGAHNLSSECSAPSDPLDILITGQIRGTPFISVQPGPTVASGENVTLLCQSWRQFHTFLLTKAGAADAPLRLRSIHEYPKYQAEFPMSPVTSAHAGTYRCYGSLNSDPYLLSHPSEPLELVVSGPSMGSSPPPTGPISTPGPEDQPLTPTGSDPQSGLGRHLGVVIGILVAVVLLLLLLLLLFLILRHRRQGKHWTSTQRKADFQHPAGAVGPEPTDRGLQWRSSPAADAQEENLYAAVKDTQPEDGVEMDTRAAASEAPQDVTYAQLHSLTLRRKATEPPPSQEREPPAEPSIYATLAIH
# Procedure: as §1
# [10] = target: B2; assay: flow cytometry on transfected 293T cells
# Procedure: as §1
# [11] = target: T2, human Angptl-7 with FLAG tag at the …; assay: flow cytometry, 293T cells transfected with mouse LAIR1, anti-FLAG-APC against anti-LAIR1-PE; left gate of the same panel 56; Control panel 14 (left) and 15 (right)
# Procedure: as §1
binder,measurement,setting,value
"GST-Angptl-5-FLAG, in house, bacterially expressed (ligand, also called GST-A5 (in house, bacterial); GST-A5-FLAG; not shown: glutathione S-transferase (GST) tag at the N-terminus (pGEX vector); FLAG tag at the C-terminus) NCVHHSTDSSVVNIVEDGSNAKDESKSNDTVCKEDCEESCDVKTKITREEKHFMCRNLQNSIVSYTRSTKKLLRNMMDEQQASLDYLSNQVNELMNRVLLLTTEVFRKQLDPFPHRPVQSHGLDCTDIKDTIGSVTKTPSGLYIIHPEGSSYPFEVMCDMDYRGGGWTVIQKRIDGIIDFQRLWCDYLDGFGDLLGEFWLGLKKIFYIVNQKNTSFMLYVALESEDDTLAYASYDNFWLEDETRFFKMHLGRYSGNAGDAFRGLKKEDNQNAMPFSTSDVDNDGCRPACLVNGQSVKSCSHLHNKTGWWFNECGLANLNGIHHFSGKLLATGIQWGTWTKNNSPVKIKSVSMKIRRMYNPYFK",binding result,[1],binds
"GST-Angptl-5 (purified, purchased from Abnova) (ligand, Bought fusion protein; Used radio-iodinated in the liquid-phase assay; also called GST-A5 (Abnova); ^125I-GST-Angptl-5; not shown: glutathione S-transferase (GST) tag at the N-terminus) NCVHHSTDSSVVNIVEDGSNAKDESKSNDTVCKEDCEESCDVKTKITREEKHFMCRNLQNSIVSYTRSTKKLLRNMMDEQQASLDYLSNQVNELMNRVLLLTTEVFRKQLDPFPHRPVQSHGLDCTDIKDTIGSVTKTPSGLYIIHPEGSSYPFEVMCDMDYRGGGWTVIQKRIDGIIDFQRLWCDYLDGFGDLLGEFWLGLKKIFYIVNQKNTSFMLYVALESEDDTLAYASYDNFWLEDETRFFKMHLGRYSGNAGDAFRGLKKEDNQNAMPFSTSDVDNDGCRPACLVNGQSVKSCSHLHNKTGWWFNECGLANLNGIHHFSGKLLATGIQWGTWTKNNSPVKIKSVSMKIRRMYNPYFK",binding result,[2],binds
same,binding result,[3],no binding
same,binding result,[4],no binding
same,binding result,[5],binds
same,binding result,[6],no binding
same,binding result,[7],no binding
same,binding result,[8],binds
"GST-Angptl-3 (ligand, also called GST-Angptls-FLAG (Angptl-3); not shown: glutathione S-transferase (GST) tag (pGEX vector); FLAG tag (GST-Angptls-FLAG)) SRIDQDNSSFDSLSPEPKSRFAMLDDVKILANGLLQLGHGLKDFVHKTKGQINDIFQKLNIFDQSFYDLSLQTSEIKEEEKELRRTTYKLQVKNEEVKNMSLELNSKLESLLEEKILLQQKVKYLEEQLTNLIQNQPETPEHPEVTSLKTFVEKQDNSIKDLLQTVEDQYKQLNQQHSQIKEIENQLRRTSIQEPTEISLSSKPRAPRTTPFLQLNEIRNVKHDGIPAECTTIYNRGEHTSGMYAIRPSNSQVFHVYCDVISGSPWTLIQHRIDGSQNFNETWENYKYGFGRLDGEFWLGLEKIYSIVKQSNYVLRIELEDWKDNKHYIEYSFYLGNHETNYTLHLVAITGNVPNAIPENKDLVFSTWDHKAKGHFNCPEGYSGGWWWHDECGENNLNGKYNKPRAKSKPERRRGLSWKSQNGRLYSIKSTKMLIHPTDSESFE",binding result,[9],binds
B1,binding result,[10],no binding
"human Angptl-3 with FLAG tag at the C-terminus (ligand, not shown: FLAG tag at the C-terminus) DQDNSSFDSLSPEPKSRFAMLDDVKILANGLLQLGHGLKDFVHKTKGQINDIFQKLNIFDQSFYDLSLQTSEIKEEEKELRRTTYKLQVKNEEVKNMSLELNSKLESLLEEKILLQQKVKYLEEQLTNLIQNQPETPEHPEVTSLKTFVEKQDNSIKDLLQTVEDQYKQLNQQHSQIKEIENQLRRTSIQEPTEISLSSKPRAPRTTPFLQLNEIRNVKHDGIPAECTTIYNRGEHTSGMYAIRPSNSQVFHVYCDVISGSPWTLIQHRIDGSQNFNETWENYKYGFGRLDGEFWLGLEKIYSIVKQSNYVLRIELEDWKDNKHYIEYSFYLGNHETNYTLHLVAITGNVPNAIPENKDLVFSTWDHKAKGHFNCPEGYSGGWWWHDECGENNLNGKYNKPRAKSKPERRRGLSWKSQNGRLYSIKSTKMLIHPTDSESFE",binding result,[2],binds
B2,binding result,[4],no binding
same,binding result,[6],no binding
same,binding result,[7],no binding
"mouse LAIR1 (receptor, UniProt Q8BG84 22-263, looked up, whole, on cells) QEGSLPDITIFPNSSLMISQGTFVTVVCSYSDKHDLYNMVRLEKDGSTFMEKSTEPYKTEDEFEIGPVNETITGHYSCIYSKGITWSERSKTLELKVIKENVIQTPAPGPTSDTSWLKTYSIYIFTVVSVIFLLCLSALLFCFLRHRQKKQGLPNNKRQQQRPEERLNLATNGLEMTPDIVADDRLPEDRWTETWTPVAGDLQEVTYIQLDHHSLTQRAVGAVTSQSTDMAESSTYAAIIRH",binding result,[11],binds

# — US20150174203A1 (ICAHN SCHOOL OF MEDICINE AT MOUNT SINAI, published 2015)
